Measurements reported in publication PMC5322571, “Selection of DNA Aptamers for Ovarian Cancer Biomarker CA125 Using One-Pot SELEX and High-Throughput Sequencing”.

Key:
Details in all cases: protein: commercial; label: 5' TEX615 (Texas Red) for FA; FAM for APCE; single strand
[1] = biological target: T1, CA125 (Cancer Antigen 125, mucin glycoprotein) (human, UniProt Q8WXI7 1-14451); assay: fluorescence anisotropy; heat cycled with Mg2+ (5 mM in Results; TGKM is 1 mM in Methods); FA: 100 nM aptamer heat cycled in TGKM (25 mM Tris, 192 mM glycine, 5 mM KH2PO4, 1 mM MgCl2, pH 8.3), CA125 0-2000 U/mL in PBS, 0.13 mg/mL BSA, 90 min RT, read
[2] = biological target: T1, CA125 (Cancer Antigen 125, mucin …); assay: affinity probe capillary electrophoresis; TGKM (1 mM Mg2+); FA: 100 nM aptamer heat cycled in TGKM (25 mM Tris, 192 mM glycine, 5 mM KH2PO4, 1 mM MgCl2, pH 8.3), CA125 0-2000 U/mL in PBS, 0.13 mg/mL BSA, 90 min RT, read
[3] = biological target: T1, CA125 (Cancer Antigen 125, mucin …); assay: fluorescence anisotropy; heat cycled in PBS without Mg2+; FA: 100 nM aptamer heat cycled in TGKM (25 mM Tris, 192 mM glycine, 5 mM KH2PO4, 1 mM MgCl2, pH 8.3), CA125 0-2000 U/mL in PBS, 0.13 mg/mL BSA, 90 min RT, read
[4] = biological target: T1, CA125 (Cancer Antigen 125, mucin …); assay: affinity probe capillary electrophoresis; heat cycled in TE without Mg2+; TGK run buffer; FA: 100 nM aptamer heat cycled in TGKM (25 mM Tris, 192 mM glycine, 5 mM KH2PO4, 1 mM MgCl2, pH 8.3), CA125 0-2000 U/mL in PBS, 0.13 mg/mL BSA, 90 min RT, read
[5] = biological target: T1, CA125 (Cancer Antigen 125, mucin …); assay: fluorescence anisotropy; FA: 100 nM aptamer heat cycled in TGKM (25 mM Tris, 192 mM glycine, 5 mM KH2PO4, 1 mM MgCl2, pH 8.3), CA125 0-2000 U/mL in PBS, 0.13 mg/mL BSA, 90 min RT, read

B1: CA125_1 (CA125_1_NP, without primer regions) (ssDNA)
DNA: ACTAGCTCCGATCTTTCTTATCTAC
For B1, the Kd [1] was 207 ± 109 U/mL and the Kd [2] was 80 ± 38 U/mL.

B2: CA125_12 (CA125_12_NP, without primer regions) (ssDNA)
DNA: TGCCTTATTACTCTCTCCTGTTAAC
For B2, the Kd [3] was 118 ± 123 U/mL and the Kd [4] was 131 ± 93 U/mL.

B3: CA125_2 (without primer regions) (ssDNA)
DNA: CACTCTTTCATTTTATTTATAATTAT
B3: no binding [5].

B4: CA125_3 (without primer regions) (ssDNA)
DNA: TTCAATATTACTTATCTTTTTTTTT
B4: no binding [5].
